Test: soluble on expression in E. coli; label from the status in PepcDB or PDB records

Sequence	soluble on expression in E. coli
MFSISLLSCLFLGTVPALAQTGGERRLSPEKSEIWGPGLKAHVVLPVRYFYIRAVDTSGEQFTSSPGEKVFQVKISAPDEQFTRVGVQVLDRKDGSFIVRYRMYASYRNLKIEVKHHGQHVAESPYVLRGPVYHENCDCPLEDSAAWLREMNCSETISQIQKDLAHFPTVDPEKIAAEIPKRFGQRQSLCHYTLKDNKVYIKTHGEHVGFRIFMDAILLSLTRKVRMPDVEFFVNLGDWPLEKKKSNSNIQPIFSWCGSTESRDIVMPTYDLTDSVLETMGRVSLDMMSVQANTGPPWESKNSTAVWRGRDSRKERLELVKLSRKHPELIDAAFTNFFFFKHDESLYGPIVKHISFFDFFKHKYQINIDGTVAAYRLPYLLVGDSVVLKQDSIYYEHFYNELQPWKHYIPVKSNLSDLLEKLKWAKEHDAEAKKIAKAGQEFARNNLMGDDIFCYYFKLFQGYANLQVSEPQIREGMKRVEPQSEDDLFPCTCHRRKAKDEL	soluble
MRRVNILCSFALLFASHTSLAVTYPLPPEGSRLVGQSFTVTVPDHNTQPLETFAAQYGQGLSNMLEANPGADVFLPKSGSQLTIPQQLILPDTVRKGIVVNVAEMRLYYYPPDSNTVEVFPIGIGQAGRETPRNWVTTVERKQEAPTWTPTPNTRREYAKRGESLPAFVPAGPDNPMGLYAIYIGRLYAIHGTNANFGIGLRVSQGCIRLRNDDIKYLFDNVPVGTRVQIIDQPVKYTTEPDGSNWLEVHEPLSRNRAEYESDRKVPLPVTPSLRAFINGQEVDVNRANAALQRRSGMPVQISSGSRQMF	not soluble
VTEVEQKLQIVHQTLSMLDSHGFENILQEMLQSITLKTGELLGADRTTIFLLDEEKQELWSIVAAGEGDRSLEIRIPADKGIAGEVATFKQVVNIPFDFYHDPRSIFAQKQEKITGYRTYTMLALPLLSEQGRLVAVVQLLNKLKPYSPPDALLAERIDNQGFTSADEQLFQEFAPSIRLILESSRSFYIATQKQRAAAAMMKAVKSLSQSSLDLEDTLKRVMDEAKELMNADRSTLWLIDRDRHELWTKITQDNGSTKELRVPIGKGFAGIVAASGQKLNIPFDLYDHPDSATAKQIDQQNGYRTCSLLCMPVFNGDQELIGVTQLVNKKKTGEFPPYNPETWPIAPECFQASFDRNDEEFMEAFNIQAGVALQNAQLFATVKQQEQGSRSHHHHHH	soluble
GHMKSEKEKMLAGHLYNPADLELVKERERARRLVRLYNETLETEYDKRTGLLKELFGSTGERLFIEPNFRCDYGYNIHVGENFFMNFDGVILDVCEVRIGDHCFIGPGVHIYTATHPLDPHERNSGLEYGKPVVIGHNVWIGGRAVINPGVTIGDNAVIASGAVVTKDVPANAVVGGNPAKVIKWLK	soluble
MRGSHHHHHHGSVIFDKRIKDEEDVEKELGLPVLGSIQKFNMTNTRRSTSSLIVHEQPKSPISEKFRGIRSNIMFANPDSAVQSIVITSEAPGAGMSTIAANLAVAYAQAGYKTLIVDGDMRKPTQHYIFNLPNNEGLSSLLLNWSTYQDSIISTEIEDLDVLTSGPIPPNPSELITSRAFANLYDTLLMNYNFVIIDTPPVNTVTDAQLFSKFTGNVVYVVNSENNNKDEVKKGKELIEATGAKLLGVVLNRMPKDKSASYYAYYGTDES	soluble
MKDWQLPSHSGPYELRIEVQPKSHHRAHYETEGSRGAVKASAGGHPIVQLHGYLENEPLMLQLFIGTADDRLLRPHAFYQVHRITGKTVSTTSHEAILSNTKVLEIPLLPENSMRAVIDCAGILKLRNSDIELRKGETDIGRKNTRVRLVFRVHVPQPSGRTLSLQVASNPIECSQRS	soluble
MGSDKIHHHHHHMQLPNLQSATLLRRYKRFLADVELNNGEILTLHCANTGAMTGCGEKGDTVWFSTSDSKTRKYPHSWELTQLKNGQTVCINTHRSNQLTLEALQNKIITELAEYDEILPEVKYGVENSRIDFLLKGKNLPDCYVEVKSVTFVKNHLGLFPDAVTTRGQKHLRELIAMKKRGHRAVVFFAGLHDGFNRFTVAKSIDPDYAELLQQAVKEGVEVYSYAVKFDFSHQKPTALYLTNLVNYLE	not soluble
AHHHHHHGSKEEEIHVDPQIVKNITEILKNIKKMKVKQDKRVKWRRENDGRIITFNPITGKICVMNPTLAEIYVMTKNPKGCTFETLIRTLKQRFPSIDEKQLESDILRAMTWLFINGFVYLEDTSKKSKKINIVDVIMEISNQKRGPRQ	not soluble
MGSDKIHHHHHHMVQHLVDLLDTWLPSYQEDWVLAVLTQVEGSSYRKPGAIMLFHPMGKSLGMLSGGCLEADLRRHAQRAIQTQQVIQLTYDATDESDTSYQLGCGGIVNIMMVSLNKANNYLGLVSVHDALMRGDRGTYQLEIVADGVSSHQISGHFVEASSDAAPITLNTKTLKVTEQHKTLLQIPLRPPVHIGIFGGGLDAKPIAQMAQTMGWKVTIFDERTAYARTYDFPGCHIMKHPTPSISTDLLSGLDAAFIMSHNLQIDAKTLKTLQPLPLAYISLLGPVHRRDKVLDMAELSLKDFSGYFSAPAGLALGGELPGSVALSILSQCHGVLYNSKLTSLDSVML	not soluble
MRILFIGDVVGSLGREALATYVPKLKKKYRPQVTIANGENAASGRGITGKIYKKFLQDGVDVVTMGNHTWDNKDIFEFIDDAKKMVRPANFPEDVPGQGMVFVKVNQLELAVINLQARTFMVPLEDPFKKAAELVAIARKRTPLIFVDFHGETTSEKQAMSWFLDGQVSAVVGTHTHVQTNDARILPKGTAFLSDVGMTGPYDGILGMKREPIIEKFMTALPKRFEVVETGRTILSACILEIDDQTGQAKMIEPIQISEDRPFQE	not soluble
MIKRKLQDLAVCCSYQVDFLHEKKHSVKEFKRKYEVLDEIGRGGFGIVYEATTRQDGQQPVAVKFVQHKHVRSWTMTCRQLIPSEVCHLETCEDIPGVIKILDWFANSKGFLIVMERPANCMDLFDMVSVHGPLNEDMGKFIFKQVITTVFNMYSKHGLLHRDIKDENLIVNMNTGEVKLVDFGATAYAEKATKKEFQGTRSYCPPEWFRDQLYLPLEATSWSLGVLLFILLTGKLPFRNEIQICLGNVKFPPDLSKEVCQLVKSCLTTSTSARASLAQIAAHPWMETDKPFFGGDLTFEEALMEIKNPPVVIEDKEAEEEDNDLNDVVILTRSRESRTDLDAESICTMVTAVEDRYEPSIAVKELEQEEIVETGETTNLMRSESRYDNISSSSFCDYVSLVSSSYDDQFTSTSDIYQSACEVFPHTGSSSSLSRSMGAVKSASAYNLVRMRKKSSIFKSFDTELDPVSENDHQPLIPETSSATCQSTYSNDEDVTISEKVVSPAQPLPPPLSPRKGSLQCFESVPRSRDSVIRMSRHRPLQFAIDSSSPPPALAIFQVSPTASVG	not soluble
MGTFATTYEKIQDFNWLTRFLHAGRYRKLLEVLETVQKDVGNRKVRILDIGCGPGTAVGHILERFDVEYVGIDYDPIFIDAARNRYGKNENCRFIVGDATDERLYETIQADIVIALETLEHIHLNRTVRVIEHVCTIIRPRIFLVTVPVEVGPAVWIKNWGSALMGYNRQSGNLKETFWAGLYRMDRVPAHHTSHQGFDWRCLAQLIRVNAPLREIRSLPFSFVPRLLSPNVALIAEPVKSTIDLANDDPEAWKINHGQTAFQRPHIVDETDAARHAKSLATWSMRLKGLLGMALATMPFAWHRWSYISISPGEAQSSHFLLTIDKHLLPPHQSIEGDTILLAAQAIVQRVSDASYLLT	not soluble
MGSDKIHHHHHHMLSRTADNLYWMTRYVERAENMARILDVSYRMSQLPRNGTDAAVEWEPALIISGQKPDFETRFEEITAGNVIAYMALDPENPSSIVSTLHAARENARAERFVLPQEMFEGLNATWLELQSLSYARLVDWGFREFFEWVKERSHQFLGTTIGTMLQTDGFHFTRLGTFIERADNTARLLDVKYHVLMPDENRLDEAVDYYQWGAVLRAMSALKAYRMVYRDTIKPRQVIDLLTLKREFPRSLHLCYENLHDLLEHLAPGAECTRLTGEMHAKLRYGRIQDITRRGLHRFLTDFITHNAAVSAEIGRTFHLVADIGVQTPVKEAKEAKRADDGGEAEEAGSVQQQRQ	not soluble
SDFVITGGGIVGLATALRLQSLHPGARISVLEKEPAVARHQSGRNSGVIHAGVYYAPGSHKARFCARGVSSTRAFCDEHGIPYRICGKLIVATDAAELERMGTLETRARANGIVIERLSGEEARRLEPNIKAVGALLSPTTGIVDYGRVAERMAELFRDRGGEIRLDTEVTGGAESEAGVRLETTAGEISAGKAVFCGGLHADRLARAFGASLDFRIVPFRGEYFAIKNQPEDLVQHLIYPVPDPARPFLGVHLTRKMNGGFTVGPN	not soluble
MGSDKIHHHHHHMTAEVAIINRSGIALAADSAVTIGRDRVWKNSNKLFHLAPSNDVAVMVFGSGDYCGLPWEVVIKEFRKSLGKTTYSRVEEYVGRFLGFLDDLVVPPTPLADLTGWYIILNAISQTQKAMTASGSLKRRQQLIAAISEKIEEADHYPLLFDGYSRDQYRKKHSQKIKEFMAEELGMHVTQTMHSKMITLCYERSRRAFETKFETGVVFAGYGDSELLPVVIEMCVDGELEGKVRAWQVRENNMNEGGTSGAILPFAQADVANLFVEGTLPQYLSYTRQTLLQTLDLKTAELVKDYVPEPDRVVEMERQKKANRAMVKQFSTDFKQYRHDESVANLLKVVNSLPKEEMAAMAEALVEITSLRRKMDSSLETVGGPVDVAIISKSDGFVWTKRKHYFDVEFNRDFMERRNQRYQGNQDA	not soluble
MVYFEEVRRHIRIDAAHVYGGLLATLTALYEYHQIPYEGIPVGTIKKKMTGKGNASKEEIIKVVCAKGHASCDDNEADALATLHVMKGKEIRHVN	not soluble
MKGFQFKVIQEKLQGRQFINSDKIKPDHPQTIIKKTLLKEYQSKNFSCQEERDLFLEFTEKIVQNFHNINFNYLLKKFCKLPENYQSLKSQVKQIVQSENKANQQSCENLFNSLYDTEISYKQITNFLRQIIQNCVPNQLLGKKNFKVFLEKLYEFVQMKRFENQKVLDYICFMDVFDVEWFVDLKNQKFTQKRKYISDKRKILGDLIVFIINKIVIPVLRYNFYITEKHKEGSQIFYYRKPIWKLVSKLTIVKLEEENLEKVEEKL	soluble
MGSDKIHHHHHHMIITLQDTETREISAKIDELHEERGEAALGRVLTLLISTNEAELEHDLEVANNASREHPCRVIAVAPSSRKISPEEEHPTFLDAEIRFGSDAGAGEIIVLRPRGGLVRHADTLVIPLLVPDAPVVAWWPNEAPANLSKDLLGSMASSRITDAMHSSNPRRTMDDLRRNRSAKDVDMSWTRLTVWRAMIASMLDQPPHLPVSNVRVTGQKDYLPLDLLAAWLRLRLNVPVMIEEDPNATAVTGVYLTRGDGVLSLERPSTDDGFAVISVPGQSPQTISVPARTLEECLSEELGRLYPDEIYSEVVSQGLDLVKPRQ	not soluble
MGSDKIHHHHHHMIDITDKQSCCGCSSCVQKCPRQCISLHEDTEGFLYPVVDKGDCIDCGLCEKVCPLLHWGEALVPMEVLAVKNKNQEERIHSSSGGVFIALSRQIIMDGGVVFGAVYDENWEVRITYSETLDGVRPMMGSKYLQARVETGFADAERFLKQGRYVLFSGTPCQIAGLHKYLRKDYPNLLSVDFLCHGVPSPGVWRRYLKETMSDLQSARRAAAGKNTVFPSLNVMPTIVGIEFRDKTLHGWKKYSFVVRGKSAFNADKNSVLLSDIHRENPFMRGFLSDIYLRPSCYECKCKNGVSHSDLTIADFWGIDRLMPDFDDDKGIGLALVNTVKGKQIFKRLSIDIRLSALSDVVALNGGFKEYRQPHPARLVFFRRFAVGETVESIVEDILRVPLWRRVMRNIKTFCKMIINRKQLTIIPLFIRRSKKRDK	not soluble
GPLGSKLNDILHVYEKSKERELQSQLFNAWRNRFCFYTEECNIQAISKRNYQLEKMVLKKFRERLLEIVKSEE	soluble
MARPIATHDNTFTKAYLQQHCGDLLSFDGQGDLSGWLDDVLTGAGRLNESMASNTKPVSPYLILTQLLTHDTLTVSAVQESLSRKRVALGEPMVSTRYARYVYATVVSASKSVQYHASKAGS	not soluble
